The target of the assay is human pituitary adenylate cyclase-activating polypeptide type I receptor (human) (UniProt P41586). The assay is described as follows: cell-based or functional assay.
Sequence of human pituitary adenylate cyclase-activating polypeptide type I receptor (human) (P41586 21-468): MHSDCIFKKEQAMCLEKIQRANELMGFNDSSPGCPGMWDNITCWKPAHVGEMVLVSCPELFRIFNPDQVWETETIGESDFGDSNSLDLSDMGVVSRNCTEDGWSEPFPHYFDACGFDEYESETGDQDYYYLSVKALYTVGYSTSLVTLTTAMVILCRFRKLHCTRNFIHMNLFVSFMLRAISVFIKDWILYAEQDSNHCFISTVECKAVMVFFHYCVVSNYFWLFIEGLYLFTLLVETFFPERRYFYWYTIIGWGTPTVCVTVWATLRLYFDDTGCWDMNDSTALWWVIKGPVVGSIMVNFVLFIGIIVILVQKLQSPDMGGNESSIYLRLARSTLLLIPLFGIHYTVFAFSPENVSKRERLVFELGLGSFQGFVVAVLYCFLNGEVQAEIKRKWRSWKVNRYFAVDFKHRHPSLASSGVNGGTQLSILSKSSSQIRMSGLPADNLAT

HSDAVFTDNYTRLRKQMAVKKYLNSILN (ligand, UniProt P01282 125-152, looked up) [VIP] gave a PAC1 EC50 (agonist activity) of 2.3 nM.

These data come from patent US20180362645A1.
